# Results published in PMC4893161, “The Dynamic Localization of Cytoplasmic Dynein in Neurons Is Driven by Kinesin-1” (Neuron, 2016).
# B1: DIC1a: neuron-specific dynein intermediate chain isoform, expressed in COS cells (protein)
# chain: MSDKSDLKAELERKKQRLAQIREEKKRKEEERKKKEADMQQKKEPVPDDSDLDRKRRETEALLQSIGISPEPPLVQPLHFLTWDTCYFHYLVPTPMSPSSKSVSTPSEAGSQDDLGPLTRTLQWDTDPSVLQLQSDSELGRRLNKLGVSKVTQVDFLPREVVSYSKETQTPLATHQSEEDEEDEEMVEPKVGHDSELENQDKKQETKEAPPRELTEEEKQQILHSEEFLIFFDRTIRVIERALAEDSDIFFDYSGRELEEKDGDVQAGANLSFNRQFYDEHWSKHRVVTCMDWSLQYPELMVASYSNNEDAPHEPDGVALVWNMKFKKTTPEYVFHCQSSVMSVCFARFHPNLVVGGTYSGQIVLWDNRSHRRTPVQRTPLSAAAHTHPVYCVNVVGTQNAHNLITVSTDGKMCSWSLDMLSTPQESMELVYNKSKPVAVTGMAFPTGDVNNFVVGSEEGTVYTACRHGSKAGIGEVFEGHQGPVTGINCHMAVGPIDFSHLFVTSSFDWTVKLWTTKHNKPLYSFEDNADYVYDVMWSPVHPALFACVDGMGRLDLWNLNSDTEVPTASVAIEGAYALNRVRWAQGGKEVAVGDSEGRIWIYDVGELAVPHNDEWTRFARTLVEIRANRADSEEEGAVELAA
# modifications: left off: mCherry, end not stated, kept
# notes: neuron-specific dynein intermediate chain isoform, expressed in COS cells
# Legend:
# Format in all cases: binding
# KLC2 = test: Co-immunoprecipitation of KLC2 versus KLC1 with mCherry-DIC1a in COS cells; settings: COS cell lysates, IP anti-mCherry, band intensity relative to KLC1, n = 4 experiments
# KIF5C stalk (561–774) = test: Co-immunoprecipitation of DIC1a with KIF5C head, stalk and tail constructs in COS cells; settings: IP anti-GFP, Figures 4B and 4C
# KIF5A, KIF5B, KIF5C = test: Co-immunoprecipitation of DIC1a with myc-tagged KIF5 isoforms in COS cells; settings: IP anti-myc, Figure 4A
molecule,measurement,setting,value
B1,KLC2 relative to KLC1 co-immunoprecipitated with DIC1a,KLC2,5 fold
same,co-precipitation with stalk region of KIF5C,KIF5C stalk (561–774),co-precipitated
same,co-precipitation with all three KIF5 isoforms,"KIF5A, KIF5B, KIF5C",co-precipitated
